The labels stand for the following.
B1: CR12040 (antibody, V domains shown)
VH: QVQLVQSGAEVKKPGASVKVSCKASGYTFTNYYINWVRQAPGQGLEWMGRINPLHGGTGFAEKFQGRLTMTRDTSTSTVDMELSSLRSEDTAIYYCVKERDTTMATDYYGRSGCFDYWGQGTLVTVSS
VL: EIVLTQSPATLSLSPGERATLSCRASQSVRSYLAWYQQKPGQAPRLLIYDASNRATGIPARFSGSGSGTDFSLTISSLEPEDFAVYYCQQRSNWPITFGQGTRLEIK
B2: CR12042 (antibody, V domains shown)
VH: EVQLVESGAEVRKPGSSVKVSCTASGDTFSSYTITWVRQAPGQGLEWMGEIIPIFGTANYAQKFQGRVTLTADESTTTAYMDLSSLRSEDTAVYYCARGPDNHSDRYFYYGMDVWGQGTTVTVSS
VL: EIVLTQSPLSLPVTPGEPASISCRSSQSLLHSTGNNYLDWYLQKPGQSPQLLIYLGSNRASGVPDRFSGSGSGTDFTLKISRVEAEDVGVYYCMQALQTPRTFGQGTKVDIK
B3: CR12041 (antibody, V domains shown)
VH: EVQLVQSGAEVKKPGASVKVSCKAAGYTFTNYYLHWVRQAPGQGLESMGIINPSSGGTIYAQKFQGRVTMTRDTSTSTVFMELSSLTSEDTAVYYCARAGEGKSRFGEGKLRYFYYGMDVWGQGTTVTVSS
VL: not shown
B4: CR12044 (antibody, V domains shown)
VH: EVQLVQSGSEVRKPGSTVKVSCKGSGGAFRTSVIHWVRQAPGQGLRWMGGIIPTLDTANHAQEFQGRATITADESTTTAYLELSSLRSEDSAVYYCATDYGGNSDRLGSYSFAFDVWGQGTTVTVSS
VL: not shown

A value given as a limit tells only on which side of the number the result lay.

Sequence of neuraminidase (NA) of H3N2 A/Hong Kong/1/1968 (Q91MA2 whole entry): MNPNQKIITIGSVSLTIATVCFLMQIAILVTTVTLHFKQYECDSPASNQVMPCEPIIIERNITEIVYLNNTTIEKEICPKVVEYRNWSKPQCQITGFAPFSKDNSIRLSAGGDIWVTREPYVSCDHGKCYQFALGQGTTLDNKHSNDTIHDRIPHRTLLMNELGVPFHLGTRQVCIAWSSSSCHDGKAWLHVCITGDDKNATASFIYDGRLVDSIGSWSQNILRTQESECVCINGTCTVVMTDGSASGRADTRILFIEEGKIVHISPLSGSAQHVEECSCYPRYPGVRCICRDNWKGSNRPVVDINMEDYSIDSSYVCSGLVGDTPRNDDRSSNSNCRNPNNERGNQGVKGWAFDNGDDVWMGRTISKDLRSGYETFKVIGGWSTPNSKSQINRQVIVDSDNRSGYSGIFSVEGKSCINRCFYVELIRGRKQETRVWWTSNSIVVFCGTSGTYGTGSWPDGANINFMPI

One assay addresses T1, neuraminidase (NA) of H1N1 A/New Caledonia/20/1999 (influenza A virus H1N1 A/New …). Nature of the assay: cell-based or functional assay.
In the case of B1, the “EC50 of neuraminidase inhibition (NA-XTD assay, whole virus)” value was over 100 µg/mL.

Take B2: the “EC50 of neuraminidase inhibition (NA-XTD assay, whole virus)” value is 0.18 µg/mL.

Consider B3, for which the “EC50 of neuraminidase inhibition (NA-XTD assay, whole virus)” value was over 100 µg/mL.

B4: the “EC50 of neuraminidase inhibition (NA-XTD assay, whole virus)” value stood at 0.17 µg/mL.

A further assay addresses T2, neuraminidase (NA) of H1N1 A/Mississippi/3/2001 (influenza A virus H1N1 …). Description: cell-based or functional assay.
For B1, the “EC50 of neuraminidase inhibition (NA-XTD assay, whole virus)” value was over 100 µg/mL.

As to B2, the “EC50 of neuraminidase inhibition (NA-XTD assay, whole virus)” value turned out to be 0.12 µg/mL.

For B3, the “EC50 of neuraminidase inhibition (NA-XTD assay, whole virus)” value is over 100 µg/mL.

For B4, the “EC50 of neuraminidase inhibition (NA-XTD assay, whole virus)” value was 0.96 µg/mL.

The target in another assay is T3, neuraminidase (NA) of H3N2 A/Wisconsin/67/2005 (influenza A virus H3N2 …). Nature of the assay: cell-based or functional assay.
Regarding B2, the “EC50 of neuraminidase inhibition (NA-XTD assay, whole virus; one experiment)” value is 1.87 µg/mL.

Another assay concerns the target T4, neuraminidase (NA) of H3N2 A/Brisbane/10/2007 (influenza A virus H3N2 …). Description: cell-based or functional assay.
For the molecule B2, the “EC50 of neuraminidase inhibition (NA-XTD assay, whole virus; one experiment)” value worked out at 4.8 µg/mL.

In the next assay the target is T1, neuraminidase (NA) of H1N1 A/New …. Description: cell-based or functional assay. The source holds these as a separate data set.
For B1, the “IC50 of virus neutralization (VNA on MDCK cells)” value (“IC50 … (VNA on MDCK cells)” below) is over 50 µg/mL.

Take B2: the “IC50 … (VNA on MDCK cells)” value was 0.2 µg/mL.

Regarding B3, the “IC50 … (VNA on MDCK cells)” value was found to be 0.74 µg/mL.

As to B4, the “IC50 … (VNA on MDCK cells)” value came to 0.13 µg/mL.

The next assay addresses T2, neuraminidase (NA) of H1N1 …. Nature of the assay: cell-based or functional assay. This is another data set of the same source.
In the case of B1, the “IC50 … (VNA on MDCK cells)” value is over 50 µg/mL.

Consider B2, for which the “IC50 … (VNA on MDCK cells)” value was found to be 0.2 µg/mL.

Regarding B3, the “IC50 … (VNA on MDCK cells)” value turned out to be 0.59 µg/mL.

B4: the “IC50 … (VNA on MDCK cells)” value came out at 0.37 µg/mL.

For the next assay, the target named is T3, neuraminidase (NA) of H3N2 …. Nature of the assay: cell-based or functional assay. The source holds these as a separate data set.
Regarding B2, the “IC50 of virus neutralization (VNA on MDCK cells; one experiment)” value is over 100 µg/mL.

A further assay concerns the target T4, neuraminidase (NA) of H3N2 …. Description: cell-based or functional assay. The source holds these as a separate data set.
On to B2, for which the “IC50 of virus neutralization (VNA on MDCK cells; one experiment)” value was over 100 µg/mL.

In a further assay the target is human FcγRIIIa receptor (V158) (human, UniProt P08637 17-254). Nature of the assay: cell-based or functional assay.
Sequence of human FcγRIIIa receptor (V158) (P08637 17-254 F176V limits assumed): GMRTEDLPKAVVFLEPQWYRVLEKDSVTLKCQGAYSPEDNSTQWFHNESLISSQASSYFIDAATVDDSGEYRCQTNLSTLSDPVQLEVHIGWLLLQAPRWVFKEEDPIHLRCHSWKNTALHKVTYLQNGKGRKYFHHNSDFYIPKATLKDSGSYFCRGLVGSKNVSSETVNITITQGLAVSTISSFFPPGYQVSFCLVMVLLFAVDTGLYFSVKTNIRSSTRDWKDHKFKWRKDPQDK
Regarding B1, the “ADCC reporter D/A ratio; A549 targets infected with H1N1 A/Brisbane/59/2007” value came to 2.73, the “ADCC reporter D/A ratio; A549 targets infected with H1N1 A/Mississippi/03/2001” value was determined as 9.26, the “ADCC reporter D/A ratio; A549 targets infected with H1N1 A/New Caledonia/20/1999” value came to 3.19 and the “ADCC reporter D/A ratio; A549 targets infected with H5N1 A/Hong Kong/156/1997” value was 3.1. The “ADCC reporter EC50; A549 targets infected with H1N1 A/Brisbane/59/2007” value was found to be 3.83 µg/mL, the “ADCC reporter EC50; A549 targets infected with H1N1 A/Mississippi/03/2001” value worked out at 0.06 µg/mL, the “ADCC reporter EC50; A549 targets infected with H1N1 A/New Caledonia/20/1999” value amounted to 0.07 µg/mL and the “ADCC reporter EC50; A549 targets infected with H5N1 A/Hong Kong/156/1997” value worked out at 1.22 µg/mL.

With B2, the “ADCC reporter D/A ratio; A549 targets infected with H1N1 A/Brisbane/59/2007” value was 6.11, the “ADCC reporter D/A ratio; A549 targets infected with H1N1 A/Mississippi/03/2001” value came out at 17.4, the “ADCC reporter D/A ratio; A549 targets infected with H1N1 A/New Caledonia/20/1999” value turned out to be 17.7 and the “ADCC reporter D/A ratio; A549 targets infected with H5N1 A/Hong Kong/156/1997” value came to 6.87. The “ADCC reporter EC50; A549 targets infected with H1N1 A/Brisbane/59/2007” value came out at 0.08 µg/mL, the “ADCC reporter EC50; A549 targets infected with H1N1 A/Mississippi/03/2001” value worked out at 0.14 µg/mL, the “ADCC reporter EC50; A549 targets infected with H1N1 A/New Caledonia/20/1999” value was found to be 0.28 µg/mL and the “ADCC reporter EC50; A549 targets infected with H5N1 A/Hong Kong/156/1997” value is 0.01 µg/mL.

Turning to B3, the “ADCC reporter D/A ratio; A549 targets infected with H1N1 A/Brisbane/59/2007” value came out at 2.15, the “ADCC reporter D/A ratio; A549 targets infected with H1N1 A/Mississippi/03/2001” value is 8.38, the “ADCC reporter D/A ratio; A549 targets infected with H1N1 A/New Caledonia/20/1999” value was 4.08 and the “ADCC reporter D/A ratio; A549 targets infected with H5N1 A/Hong Kong/156/1997” value worked out at 5.48. For the same molecule, the “ADCC reporter EC50; A549 targets infected with H1N1 A/Brisbane/59/2007” value came out at 1.97 µg/mL, the “ADCC reporter EC50; A549 targets infected with H1N1 A/Mississippi/03/2001” value came out at 0.58 µg/mL, the “ADCC reporter EC50; A549 targets infected with H1N1 A/New Caledonia/20/1999” value is 1.61 µg/mL and the “ADCC reporter EC50; A549 targets infected with H5N1 A/Hong Kong/156/1997” value came out at 1.09 µg/mL.

Consider B4, for which the “ADCC reporter D/A ratio; A549 targets infected with H1N1 A/Brisbane/59/2007” value was found to be 6.49, the “ADCC reporter D/A ratio; A549 targets infected with H1N1 A/Mississippi/03/2001” value was 20.2, the “ADCC reporter D/A ratio; A549 targets infected with H1N1 A/New Caledonia/20/1999” value came to 17.5 and the “ADCC reporter D/A ratio; A549 targets infected with H5N1 A/Hong Kong/156/1997” value is 2.37. The “ADCC reporter EC50; A549 targets infected with H1N1 A/Brisbane/59/2007” value worked out at 0.28 µg/mL, the “ADCC reporter EC50; A549 targets infected with H1N1 A/Mississippi/03/2001” value amounted to 5.19 µg/mL, the “ADCC reporter EC50; A549 targets infected with H1N1 A/New Caledonia/20/1999” value turned out to be 0.93 µg/mL and the “ADCC reporter EC50; A549 targets infected with H5N1 A/Hong Kong/156/1997” value is 11.6 µg/mL.

The target in a further assay is T5, neuraminidase (NA) of H1N1 A/Puerto Rico/8/1934 (influenza A virus H1N1 A/Puerto …, UniProt P03468 1-454).
T5 construct: whole, on cells
T5 sequence (P03468 whole entry): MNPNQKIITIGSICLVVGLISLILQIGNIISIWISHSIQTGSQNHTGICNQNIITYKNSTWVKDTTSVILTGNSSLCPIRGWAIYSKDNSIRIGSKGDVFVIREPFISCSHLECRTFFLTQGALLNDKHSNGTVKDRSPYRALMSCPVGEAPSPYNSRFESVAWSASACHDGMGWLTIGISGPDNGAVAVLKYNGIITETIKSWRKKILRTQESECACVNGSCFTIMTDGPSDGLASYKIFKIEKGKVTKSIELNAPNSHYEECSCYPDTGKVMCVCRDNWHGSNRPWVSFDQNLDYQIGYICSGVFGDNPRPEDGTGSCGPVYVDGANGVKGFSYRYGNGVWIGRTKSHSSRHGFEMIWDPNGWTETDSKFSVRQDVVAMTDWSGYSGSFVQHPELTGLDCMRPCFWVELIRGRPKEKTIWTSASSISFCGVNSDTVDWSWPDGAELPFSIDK
Description: flow cytometry on NA-transfected 293-F cells. Background: A flow cytometer gives signals particle by particle.
For B1, the binding result is reported as “binds”.

For B2, the binding result was “binds”.

B4: the binding result is on record as “binds”.

Another assay concerns the target neuraminidase (NA) of H3N2 A/Hong Kong/1/1968 (influenza A virus H3N2 A/Hong …, UniProt Q91MA2 1-469). Nature of the assay: flow cytometry on 293-F cells transfected with NA; '-: no binding'.
With B1, the binding result was “no binding (tested: 5 µg/ml)”.

As to B2, the binding result is “no binding (tested: 5 µg/ml)”.

For B3, the binding result is reported as “no binding (tested: 0.5 µg/ml)”.

As to B4, the binding result is given as “no binding (tested: 5 µg/ml)”.

For the origin of these results see patent US20180016348A1 (Janssen / Centocor, published 2018).
